Source: patent US20190367631A1 (Regeneron, published 2019)
Changes are numbered by the printed parent chain. In names and notes the source's numbering stands.

T1: human MSR1 extracellular domain expressed with a N-terminal nonahistidine tag (human, UniProt P21757 77-451)
T1 construct: extracellular domain; also called His9-hMSR1; His-hMSR1
T1 sequence: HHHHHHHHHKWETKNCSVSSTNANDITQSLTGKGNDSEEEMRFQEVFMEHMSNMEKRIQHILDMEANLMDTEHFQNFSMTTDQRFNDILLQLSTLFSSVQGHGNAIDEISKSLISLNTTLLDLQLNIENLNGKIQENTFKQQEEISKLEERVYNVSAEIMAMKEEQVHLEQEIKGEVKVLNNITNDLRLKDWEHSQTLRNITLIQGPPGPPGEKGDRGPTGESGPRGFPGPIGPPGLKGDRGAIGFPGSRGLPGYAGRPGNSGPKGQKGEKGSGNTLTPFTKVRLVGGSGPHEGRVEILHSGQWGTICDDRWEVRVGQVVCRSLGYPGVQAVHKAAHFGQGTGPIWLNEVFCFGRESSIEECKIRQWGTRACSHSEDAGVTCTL

T2: full length monkey MSR1 on HEK293.mfMSR1 cells (Macaca fascicularis, UniProt A0A2K5UWE2 1-451)
T2 construct: whole, on cells
T2 sequence: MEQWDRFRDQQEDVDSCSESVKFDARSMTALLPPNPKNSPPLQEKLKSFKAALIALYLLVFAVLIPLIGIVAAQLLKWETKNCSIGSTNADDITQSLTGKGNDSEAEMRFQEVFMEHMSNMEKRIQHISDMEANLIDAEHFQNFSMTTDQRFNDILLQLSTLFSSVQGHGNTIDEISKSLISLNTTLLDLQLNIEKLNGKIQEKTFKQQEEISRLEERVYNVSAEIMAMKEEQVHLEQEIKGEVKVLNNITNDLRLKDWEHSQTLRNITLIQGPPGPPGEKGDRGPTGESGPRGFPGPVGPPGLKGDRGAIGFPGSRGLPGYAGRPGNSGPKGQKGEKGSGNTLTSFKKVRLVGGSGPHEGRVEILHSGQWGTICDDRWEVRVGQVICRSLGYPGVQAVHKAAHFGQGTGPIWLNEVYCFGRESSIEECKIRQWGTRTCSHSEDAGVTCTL

T3: full length human MSR1 with a C-terminal Myc tag, on HEK293.Myc.hMSR1 cells (human, UniProt P21757 1-451)
T3 sequence (looked up): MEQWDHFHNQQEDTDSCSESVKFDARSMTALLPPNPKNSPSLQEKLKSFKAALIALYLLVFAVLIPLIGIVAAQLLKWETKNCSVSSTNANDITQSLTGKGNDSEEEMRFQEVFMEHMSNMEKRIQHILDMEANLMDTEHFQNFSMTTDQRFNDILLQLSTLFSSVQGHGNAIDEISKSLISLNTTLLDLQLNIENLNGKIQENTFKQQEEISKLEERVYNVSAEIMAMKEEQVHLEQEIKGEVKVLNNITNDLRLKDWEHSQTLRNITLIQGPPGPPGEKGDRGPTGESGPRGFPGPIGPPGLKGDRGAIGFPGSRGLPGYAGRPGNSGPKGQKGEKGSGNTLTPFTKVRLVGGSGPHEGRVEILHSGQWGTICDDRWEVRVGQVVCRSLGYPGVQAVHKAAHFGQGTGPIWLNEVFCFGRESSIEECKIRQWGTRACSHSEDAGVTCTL

B1: H1H27747P-N297Q (antibody, V domains shown)
VH: QVQLVESGGAVVQPGRSLRLSCAASGFTFSYYGMHWVRQAPGKGLEWVAVISYDGSKKYYADSVKGRFTISRDNSKNTLYLQMNSLRAEDTAVYYCAKDLTVDFYYGMDVWGQGTTVTVSS
VL: DIQMTQSPSSVSASVGDRVTITCRASQGISSWLAWYQQKPGKAPKLLIYATSSLQSGAPSRFSGSGSGTDFTLTISSLQPEDFATYFCQQANSFPYTFGQGTKLEIKR
notes: Human IgG1 Fc with N297Q
B2: H1H27754P-N297Q (antibody, V domains shown)
VH: EVQLVESGGGLVQPGGSLRLSCAASGFTFRTYAMTWVRQAPGKGLDWVSAITGDGGNTYYADSVKGRFTISRDNSKNTLYLQMNSLRAEDTAIYYCAKDQRFSFALYYFDYWGQGTLVTVSS
VL: B1 VL with K42N, T51A, S52F, A58V, F87Y, S93N, Y96W, L104V
notes: Human IgG1 Fc with N297Q
B3: H1H27760P2-N297Q (antibody, V domains shown)
VH: EVQLVESGGGLVQPGRSLRLSCAASGFTFDAYAMHWVRQAPGKGLEWVSGISWNSGSIGYADSVKGRFTISRDNAKNSLYLQMNSLREEDTALYYCAKDKILELYYYGMDVWGQGTTVTVSS
VL: not shown
notes: Human IgG1 Fc with N297Q; also called H1H27760P-N297Q
B4: H1H27736P-N297Q (antibody, V domains shown)
VH: EVQLVESGGGLVQPGGSLRLSCAASGFTFSSYAMSWVRQAPGKGLEWVSSISGSGDSTFYTDSVKGRFTISRDISKNTLYLQMNSLRAEDTAVYYCAKDRLLWFGDLISPFHYWGQGTLVTVSS
VL: EIVLTQSPGTLSLSPGERATLSCRASQSVSNIYLAWYQQKPAQAPRLLIYGASSRATGIPDRFSVSGSGTDFTLTISRLEPEDFAVYYCQQYGSSPRTFGQGTKVEIKR
notes: Human IgG1 Fc with N297Q
B5: H1H27739P-N297Q (antibody, V domains shown)
VH: EVQLVESGGGLVQPGGSLRLSCTASGFTFSSYAMSWVRQAPGKGLEWVSAISGTGSSTYFTDSVKGRFAISRDNSKNTLYLQMNSLRAEDTAVYYCAKDGEWLSTVTLFDYWGQGTLVTVSS
VL: EIVMTQSPATLSVSPGERATLSCRASQSVSSNLAWYQQKPGQAPRLLIYGASTRATGIPARFSGSGSGTDFTLTISSLQSEDFALYYCQQYFIWPPHPTFGPGTKVDIKR
notes: Human IgG1 Fc with N297Q
B6: H1H27759P2-N297Q (antibody, human IgG1, V domains shown)
VH: EVQLVESGGGFVQPGGSLRLSCAASGFTFSSYAMSWVRQAPGKGLEWVSAISGTGSNTYYADSVKGRFTISRDNSKNTLYLQMNSLRAEDTAVYYCAKDRVTTVTYYFDYWGQGTLVTVSS
VL: not shown
notes: Human IgG1 Fc with N297Q; also called H1H27759P-N297Q
B7: H1H27761P2-N297Q (antibody, V domains shown)
VH: EVQLVESGGDLVQPGGSLRLSCSASGFTFNIYAMSWVRQAPGKGLEWVSGISGSGGSTYYADSVKGRFTISRDNSKNTLYFQMNSLRVEDTAVYYCAKKISSSSYYYYAMDVWGQGTTVTVSS
VL: not shown
notes: Human IgG1 Fc with N297Q; also called H1H27761P-N297Q
B8: H1H27762P2-N297Q (antibody, V domains shown)
VH: QVQLVQSGAEVKKPGSSVKVSCKASGGTFSRYDISWVRQAPGQGLEWMGGIIPIFGTSNYAQKFQGRVTITTDESTSTVYMELSSLRSEDTAVYYCARGGRYGWFDPWGQGTLVTVSS
VL: not shown
notes: Human IgG1 Fc with N297Q; also called H1H27762P-N297Q
B9: H1H27749P-N297Q (antibody, V domains shown)
VH: QVQLQESGPGLVKPSETLSLTCTVSDGSISSYYWSWIRQPPGRGLEWIGFIYYSGSTSYNPSLKSRVTISVDTSMSQFSLKLRSVTAADTAVYYCARGSPFDYWGPGTLVTVSS
VL: EIVLTQSPGTLSLSPGERATLSCRASQSVSSSYLAWYQQRPGQAPSLLISGASRRATGIPDRFSGSGSGTDFTLTIRRLEPEDFAMYYCQQYGSSPPTFGGGTKVEIKR
notes: Human IgG1 Fc with N297Q
B10: H1H27756P-N297Q (antibody, V domains shown)
VH: QVQLVESGGGVVQPGRSLRLSCAASGFTFSNYDMHWVRQAPGKGLEWMAVISYDGINKYYADSVKGRFTISRDNSKNTLYLQMNSLRAEDTAVYYCAKGTYSWYFDLWGRGTLVTVSS
VL: not shown
notes: Human IgG1 Fc with N297Q
B11: H1H27751P-N297Q (antibody, V domains shown)
VH: EVQLVESGGGLVQPGGSLRLSCAASGFTFSNYAMHWVRQAPGKGLEYVSAISSNGGSTYYADSVKGRITISRDNSKNTLYLQMGSLRAEDMAVYYCARGRPYYYYFGMDVWGQGTTVTVSS
VL: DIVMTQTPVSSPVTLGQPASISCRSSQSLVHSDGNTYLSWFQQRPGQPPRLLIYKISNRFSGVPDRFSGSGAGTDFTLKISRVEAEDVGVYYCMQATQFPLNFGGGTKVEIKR
notes: Human IgG1 Fc with N297Q
B12: H1H27734P-N297Q (antibody, V domains shown)
VH: EVQLVESRGGLVQPGGSLRLSCAASGFTFSSYAMSWVRQAPGKGLEWVSAISGSGGSTFYADSVKGRFTISRDNSKNTVYLQMNSLRAEDTAVYYCAKALVLRFLEWLGDYWGQGTLVTVSS
VL: DIQMTQSPSTLSASVGDRVTITCRASQSISSWLAWFQQKPGKAPKLLIYKASSLESGVPSRFSGSGSGTEFTLTISSLQPDDFATYYCQQYKSYWTFGQGTKVEIKR
notes: Human IgG1 Fc with N297Q
B13: H2aM25695N (antibody, mouse IgG2a, V domains shown)
VH: QVQLQESGPGLVKPSETLSLTCTVTGGSISRNYWSWIRQPPGKGLEWIGYIYYSGSINYNPSLKSRVTISVDMSKNQFSLKLNSVTAADTAVYYCARDRWNWKYGMDVWGQGTTVIVSS
VL: B4 VL with S28T, S30R, I32S, Q38H, A42G, V65G, P96Y, R97W, V105M
notes: mouse IgG2a Fc
B14: H1xH27759P2 (antibody, V domains shown)
VH: B6 VH
VL: not shown
B15: H2aM21229N (antibody, mouse IgG2a, V domains shown)
VH: EVQLVESGGGLVKPGGSLRLSCAASGFTFSRYSMNWVRQAPGKGLEWVSSISSSSSYIYYGDTVKGRFTISRDNAKKSLYLQMNSLRAEDTAVYYCVRDRGQLVLYFDYWGQGTLVTVSS
VL: DIQMTQSPASLSTSIRDRVTITCRASLSISSFLNWFQQRPGKAPKLLIYVASNLQSGVPSRFSDSGSGTDFTLTISSLQPEDFATYYCQQNYSTPPITFGQGTRLEIK
notes: mouse IgG2a Fc
B16: H1xH29283P2 (antibody, V domains shown)
VH: B8 VH with A9T, D33T, I34F, S58T, A97T
VL: not shown

Target: T1, human MSR1 extracellular domain …
Test: competition ELISA, plate-coated His9-hMSR1; 100 nM antibody, competitor ligand Ac-LDL
Experimental: (§1) Buffer alone was also added to wells on each coat. […] This assay was conducted in four different assay runs.
(§2) Data analysis was performed using a sigmoidal dose-response model within Prism™ software (GraphPad).

Point of comparison: B9, “% Blocking” value -51%. Against it:
- B1 — higher, -44%
- B2 — higher, -42%
- B3 — higher, -43%
- B4 — higher, -31%
- B5 — higher, -47%
- B6 — higher, -45%
- B7 — higher, -36%
- B8 — lower, -58%
- B10 — lower, -54%
- B11 — the same, -51%
- B12 — higher, -38%

Target: T1, human MSR1 extracellular domain …
Test: competition ELISA, plate-coated His9-hMSR1; 300 nM antibody, competitor ligand biot-AGE-BSA
Experimental: as §1, §2

Point of comparison: B4, “% Blocking” value -3%. Against it:
- B1 — higher, -2%
- B2 — lower, -9%
- B3 — lower, -4%
- B5 — lower, -9%
- B6 — lower, -19%
- B7 — lower, -4%
- B8 — lower, -16%
- B9 — higher, -1%
- B10 — lower, -8%
- B11 — lower, -11%
- B12 — lower, -4%

Target: T1, human MSR1 extracellular domain …
Test: competition ELISA, plate-coated His9-hMSR1; 1 µM antibody, competitor ligand 10 nM Ox-LDL
Experimental: as §1, §2

Point of comparison: B10, “% Blocking” value -45%. Against it:
- B1 — higher, -31%
- B2 — higher, -44%
- B3 — lower, -47%
- B4 — higher, 3%
- B5 — higher, -41%
- B6 — lower, -62%
- B7 — higher, -21%
- B8 — lower, -65%
- B9 — higher, -21%
- B11 — higher, -31%
- B12 — higher, -15%

Target: T2, full length monkey MSR1 on …
Test: ECL cell binding, HEK293.mfMSR1 cells, 11 nM
Experimental: All cells were washed once with 1×PBS with Ca²⁺/Mg²⁺ and counted with a Cellometer™ Auto T4 cell counter (Nexcelom Bioscience). Approximately 1.0×10⁴ cells were seeded separately onto 96-well carbon electrode plates [MULTI-ARRAY high bind plate, Meso Scale Diagnostics] and incubated for 1 hour at 37° C. Non-specific binding sites were then blocked by 2% BSA (w/v) in PBS with Ca²⁺/Mg²⁺ for 1 hour at room temperature. THP-1 cells were pre-incubated for 0.5 hours at room temperature in sample dilution buffer with: 1) 1 mg/mL Fc receptor block reagents to block Fc gamma receptors on THP-1 cell surface [whole molecule human IgG (Jackson Immunoresearch, Cat #009-000-003) for wells being tested with anti-MSR1-mFc antibodies or 2) whole molecule mlgG (Jackson Immunoresearch, Cat #015-000-003) for wells being tested with anti-MSR1-hFc antibodies. Antibody binding on HEK293.Myc.hMSR1, HEK293.mfMSR1 and HEK293 cells was tested without Fc receptor block reagents. […] Plates were then washed to remove unbound antibodies an AquaMax2000 plate washer with a cell washing head (MDS Analytical Technologies). […] Plates were washed and developed with Read Buffer (Meso Scale Diagnostics, Cat # R92TD-2) according to manufacturer's recommended procedure and luminescent signals were recorded with a SECTOR Imager 600 (Meso Scale Diagnostics). Luminescence intensity, measured in relative light units (RLU), was recorded to indicate the binding intensity of each antibody at the range of concentrations.

Point of comparison: B13, “ratio of binding signal (RLU) to isotype control” value 45 fold. Against it:
- B14 — lower, 21 fold
- B15 — lower, 27 fold
- B16 — lower, 24 fold

Target: T3, full length human MSR1 with a …
Test: cell-based or functional assay

B13 was tested, and the “% Inhibition of Dil-Acetylated LDL uptake” value was 40%.

Point of comparison: B15, “% Inhibition of Dil-Oxidized LDL uptake” value 26%. Against it:
- B13 — higher, 69%

In the case of B13, the “IC50 of Dil-Acetylated LDL uptake inhibition” value is reported as > 170 nM.

B13 and B15 cannot be ordered by “IC50 of Dil-Oxidized LDL uptake inhibition” value: > 16 nM for the first, > 100 nM for the second.

Target: T3, full length human MSR1 with a …
Test: ECL cell binding, HEK293.Myc.hMSR1 cells, 11 nM

Point of comparison: B14, “ratio of binding signal (RLU) to isotype control” value 22 fold. Against it:
- B13 — higher, 35 fold
- B15 — higher, 78 fold
- B16 — higher, 26 fold
